# Data reported in publication PMC2115935.
# Molecular target: integral membrane proteins of stripped rat liver cell membranes (rat (endogenous in liver))
# Assay: co-sedimentation
substance,measurement,value
"Actin, isolated from rabbit skeletal muscle, 125I-labeled (from UniProt P68135 1-377) (natural protein)",Kd,1600 nM
